Results reported in US20240317834A1, “COMPOSITIONS AND METHODS FOR NEUROLOGICAL DISEASES” (CODA BIOTHERAPEUTICS, INC., priority 2020, published 2024).
Where a chain is given by its changes, count along the chain named. In names and notes the source's numbering stands.

Test system: Lenti-X 293T cells
Experiment: YFP fluorescence quenching anion reporter plate reader assay of engineered receptors stimulated with acetylcholine or a non-native ligand
Type: cell-based
Conditions: for percent quench of YFP fluorescence, 30 nM TC-6683: TC-6683 30 nM; for percent quench of YFP fluorescence, 300 nM TC-6683: TC-6683 300 nM; for percent quench of YFP fluorescence, 3 uM TC-6683: TC-6683 3 uM; for percent quench of YFP fluorescence, 30 uM TC-6683: TC-6683 30 uM; for percent quench of YFP fluorescence, 100 uM TC-6683: TC-6683 100 uM; for percent quench of YFP fluorescence, 10 uM ach: acetylcholine 10 uM; for percent quench of YFP fluorescence, 100 uM ach: acetylcholine 100 uM; for percent quench of YFP fluorescence, 1 mM ach: acetylcholine 1 mM; for percent quench of YFP fluorescence, 3 mM ach: acetylcholine 3 mM
In short: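 YFP quench was followed for about 1 min 43 s after ligand delivered in iodide-based ECS, pH 7.2. Values are end-of-read fluorescence (last 10 s) divided by the pre-ligand baseline (15 s). Cells were LX293T, transfected with receptor DNA a day before the assay.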

B1: CODA965: engineered chimeric LGIC receptor, Y140C in SEQ ID NO: 33 (protein)
chain: MRCSPGGVWLALAASLLHVSLQGEFQRKLYKELVKNYNPLERPVANDSQPLTVYFSLSLLQIMDVDEKNQVLTTNIWLQMSWTDHYLQWNVSEYPGVKTVRFPDGQIWKPDILLYNSADERFDATFHTNVLVNSSGHCQCLPPGIFKSSCPMDLKNFPMDVQTCKLKFGSWSYGGWSLDLQMQEADISGYIPNGEWDLVGIPGKRSERFYECCKEPYPDVTFTVTMRRRMGYYLIQMYIPSLLIVILSWISFWINMDAAPARVGLGITTVLTMTTQSSGSRASLPKVSYVKAIDIWMAVCLLFVFSALLEYAAVNFVSRQHKELLRFRRKRRHHKSPMLNLFQEDEAGEGRFNFSAYGMGPACLQAKDGISVKGANNSNTTNPPPAPSKSPEEMRKLFIQRAKKIDKISRIGFPMAFLIFNMFYWIIYKIVRREDVHNQ
modifications: synthetic sequence of chimeric LGIC
YFP fluorescence quenching using CNL001 (1 nM CNL001, first column): −12.765%
YFP fluorescence quenching using CNL001 (1 nM CNL001, second column): −12.608%
YFP fluorescence quenching using TC-5619/Bradanicline (3 nM brd): −18.49%
YFP fluorescence quenching using Varenicline (3 nM var, first column): −17.716
YFP fluorescence quenching using Varenicline (3 nM var, second column): −23.019
YFP fluorescence quenching using CNL001 (10 nM CNL001, first column): 68.134%
YFP fluorescence quenching using CNL001 (10 nM CNL001, second column): 71.394%
YFP fluorescence quenching using TC-5619/Bradanicline (30 nM brd): 22.66%
YFP fluorescence quenching using Facinicline (30 nM fac): −12.29
YFP fluorescence quenching using Varenicline (30 nM var, first column): −14.993
YFP fluorescence quenching using Varenicline (30 nM var, second column): −12.182
YFP fluorescence quenching using CNL001 (50 nM CNL001, first column): 80.298%
YFP fluorescence quenching using CNL001 (50 nM CNL001, second column): 82.159%
YFP fluorescence quenching using ABT-126 (50 nM abt): −10.75%
YFP fluorescence quenching using CNL001 (100 nM CNL001, first column): 82.404%
YFP fluorescence quenching using CNL001 (100 nM CNL001, second column): 82.14%
YFP fluorescence quenching using CNL002 (100 nM CNL002): 43.24%
YFP fluorescence quenching using ABT-126 (100 nM abt): −4.11%
YFP fluorescence quenching using AZD-0328 (100 nM azd0328): −16.69%
YFP fluorescence quenching using ABT-126 (300 nM abt): 18.93%
YFP fluorescence quenching using AZD-0328 (300 nM azd0328): 1.3%
YFP fluorescence quenching using TC-5619/Bradanicline (300 nM brd): 38.02%
YFP fluorescence quenching using Facinicline (300 nM fac): 20.11
YFP fluorescence quenching using Varenicline (300 nM var, first column): −11.731
YFP fluorescence quenching using Varenicline (300 nM var, second column): −10.13
YFP fluorescence quenching using Varenicline (500 nM var, first column): −12.518
YFP fluorescence quenching using Varenicline (500 nM var, second column): −15.043
YFP fluorescence quenching using CNL001 (1 uM CNL001, first column): 82.34%
YFP fluorescence quenching using CNL001 (1 uM CNL001, second column): 80.649%
YFP fluorescence quenching using CNL002 (1 uM CNL002): 42.72%
YFP fluorescence quenching using ABT-126 (1 uM abt): 52.64%
YFP fluorescence quenching using TC-6987 (1 uM tc6987): 2.73
YFP fluorescence quenching using Varenicline (1 uM var, first column): −13.385
YFP fluorescence quenching using Varenicline (1 uM var, second column): −17.022
YFP fluorescence quenching using TC-6987 (10 uM tc6987): 30.37
YFP fluorescence quenching using CNL002 (30 uM CNL002): 51.43%
YFP fluorescence quenching using AZD-0328 (30 uM azd0328): 21.78%
YFP fluorescence quenching using Facinicline (30 uM fac): 37.62
YFP fluorescence quenching using TC-6987 (500 uM tc6987): 33.07
percent quench of YFP fluorescence, 30 nM TC-6683: −8.21%
percent quench of YFP fluorescence, 300 nM TC-6683: −16.37%
percent quench of YFP fluorescence, 3 uM TC-6683: −19.48%
percent quench of YFP fluorescence, 30 uM TC-6683: −24.32%
percent quench of YFP fluorescence, 100 uM TC-6683: −24.99%
percent quench of YFP fluorescence, 10 uM ach: −21.71%
percent quench of YFP fluorescence, 100 uM ach: 3.49%
percent quench of YFP fluorescence, 1 mM ach: 63.34%
percent quench of YFP fluorescence, 3 mM ach: 51.92%

B2: CODA1047: engineered chimeric LGIC receptor, R101F, Y210V in SEQ ID NO: 33 (protein)
chain: B1 chain with R101F, C140Y, Y210V
modifications: synthetic sequence of chimeric LGIC
YFP fluorescence quenching using CNL001 (1 nM CNL001, first column): −7.82%
YFP fluorescence quenching using CNL001 (1 nM CNL001, second column): −8.382%
YFP fluorescence quenching using TC-5619/Bradanicline (1 nM brd): −5.548%
YFP fluorescence quenching using TC-5619/Bradanicline (3 nM brd): −9.432%
YFP fluorescence quenching using Varenicline (3 nM var, first column): −3.035
YFP fluorescence quenching using Varenicline (3 nM var, second column): −0.786
YFP fluorescence quenching using CNL001 (10 nM CNL001, first column): −5.381%
YFP fluorescence quenching using CNL001 (10 nM CNL001, second column): −1.431%
YFP fluorescence quenching using TC-5619/Bradanicline (10 nM brd): −3.068%
YFP fluorescence quenching using TC-5619/Bradanicline (30 nM brd): 2.368%
YFP fluorescence quenching using Varenicline (30 nM var, first column): −5.181
YFP fluorescence quenching using Varenicline (30 nM var, second column): 0.669
YFP fluorescence quenching using CNL001 (50 nM CNL001, first column): −0.999%
YFP fluorescence quenching using CNL001 (50 nM CNL001, second column): 3.909%
YFP fluorescence quenching using ABT-126 (50 nM abt): −14.1%
YFP fluorescence quenching using CNL001 (100 nM CNL001, first column): −0.823%
YFP fluorescence quenching using CNL001 (100 nM CNL001, second column): −5.885%
YFP fluorescence quenching using ABT-126 (100 nM abt): −11.72%
YFP fluorescence quenching using TC-5619/Bradanicline (100 nM brd): 47.529%
YFP fluorescence quenching using ABT-126 (300 nM abt): −12.98%
YFP fluorescence quenching using TC-5619/Bradanicline (300 nM brd): 74.413%
YFP fluorescence quenching using Varenicline (300 nM var, first column): −2.748
YFP fluorescence quenching using Varenicline (300 nM var, second column): −6.708
YFP fluorescence quenching using Varenicline (500 nM var, first column): −9.123
YFP fluorescence quenching using Varenicline (500 nM var, second column): −9.869
YFP fluorescence quenching using CNL001 (1 uM CNL001, first column): 1.638%
YFP fluorescence quenching using CNL001 (1 uM CNL001, second column): 3.483%
YFP fluorescence quenching using ABT-126 (1 uM abt): −15.09%
YFP fluorescence quenching using Varenicline (1 uM var, first column): −6.702
YFP fluorescence quenching using Varenicline (1 uM var, second column): −7.26
percent quench of YFP fluorescence, 30 nM TC-6683: −24.195%
percent quench of YFP fluorescence, 300 nM TC-6683: −24.234%
percent quench of YFP fluorescence, 3 uM TC-6683: −21.291%
percent quench of YFP fluorescence, 30 uM TC-6683: −16.363%
percent quench of YFP fluorescence, 100 uM TC-6683: −24.9%
percent quench of YFP fluorescence, 10 uM ach: −4.26%
percent quench of YFP fluorescence, 100 uM ach: −13.05%
percent quench of YFP fluorescence, 300 uM ach (acetylcholine 300 uM): −11.73%
percent quench of YFP fluorescence, 500 uM ach (acetylcholine 500 uM): −10.75%
percent quench of YFP fluorescence, 1 mM ach: −8.81%
percent quench of YFP fluorescence, 3 mM ach: −6.77%
percent quench of YFP fluorescence, 10 mM ach (acetylcholine 10 mM): −1.03%
